Biological target: human α3β2 nicotinic acetylcholine receptor (human) (UniProt P32297)
UniProt P32297, sequence (P32297 32-505, chain 1 of 2): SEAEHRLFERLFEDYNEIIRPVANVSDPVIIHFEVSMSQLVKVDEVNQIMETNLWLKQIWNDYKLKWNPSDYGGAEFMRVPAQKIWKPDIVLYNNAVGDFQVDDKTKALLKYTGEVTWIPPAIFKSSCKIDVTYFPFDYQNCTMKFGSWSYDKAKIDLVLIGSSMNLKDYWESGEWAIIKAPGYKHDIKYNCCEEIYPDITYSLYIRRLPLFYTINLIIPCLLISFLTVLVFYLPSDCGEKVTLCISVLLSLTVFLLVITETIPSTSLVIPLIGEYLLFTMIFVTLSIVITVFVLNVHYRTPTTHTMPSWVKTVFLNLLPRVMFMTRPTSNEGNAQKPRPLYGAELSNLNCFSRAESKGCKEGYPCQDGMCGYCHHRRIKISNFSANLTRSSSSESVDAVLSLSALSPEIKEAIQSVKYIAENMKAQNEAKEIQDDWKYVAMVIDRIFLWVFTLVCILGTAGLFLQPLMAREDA
UniProt P32297, sequence (P17787 26-502, chain 2 of 2, further chain): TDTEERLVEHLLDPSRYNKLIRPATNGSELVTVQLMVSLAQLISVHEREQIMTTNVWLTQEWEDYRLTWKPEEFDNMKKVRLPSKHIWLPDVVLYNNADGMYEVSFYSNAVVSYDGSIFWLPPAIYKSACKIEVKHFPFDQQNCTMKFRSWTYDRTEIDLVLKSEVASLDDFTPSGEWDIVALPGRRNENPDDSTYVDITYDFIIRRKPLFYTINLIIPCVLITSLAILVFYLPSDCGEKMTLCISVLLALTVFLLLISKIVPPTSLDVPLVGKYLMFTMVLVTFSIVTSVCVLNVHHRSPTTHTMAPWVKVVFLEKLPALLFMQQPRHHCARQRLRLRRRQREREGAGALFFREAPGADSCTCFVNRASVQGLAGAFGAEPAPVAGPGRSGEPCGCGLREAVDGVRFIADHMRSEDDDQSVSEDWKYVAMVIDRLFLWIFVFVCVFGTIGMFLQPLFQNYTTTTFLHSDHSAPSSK

In the case of drysdalin (natural protein), the inhibition of ACh‐evoked peak current at 30 nmol/L drysdalin, Xenopus oocytes is reported as 13%.
